In paper PMC8636641:

System: dTao (Drosophila melanogaster)
Test: fluorescence quenching (initial fluorescence, MST instrument)
Conditions: inosine homopolymer strand; Pull-down: TAP buffer 50 mM Tris pH 7.5, 100 mM NaCl, 5% glycerol, 0.2% NP-40, 1.5 mM MgCl2, 60 min; quenching assay buffer not stated (dTao storage 20 mM Tris …)

FITC-poly(I:C)
Kd: 42 nM
